In paper doi:10.1101/2025.11.26.690709 one finds percent of the protein as dimers and stoichiometry N data, which are given here for four molecules.

The target of assay [1] is CHIP Y230Cfs*9, recombinant (human) (UniProt Q9UNE7). The experiment in a line: mass photometry.
The target of assay [2] is CHIP-myc ΔStartCodon (c.3G>A) (human) (UniProt Q9UNE7). In words: native gel or EMSA. (In general: In EMSA bound probe runs differently from free probe, usually more slowly.)
Assay [3] deals with T1, CHIP-myc wild type (human), Q9UNE7.
T1 chain: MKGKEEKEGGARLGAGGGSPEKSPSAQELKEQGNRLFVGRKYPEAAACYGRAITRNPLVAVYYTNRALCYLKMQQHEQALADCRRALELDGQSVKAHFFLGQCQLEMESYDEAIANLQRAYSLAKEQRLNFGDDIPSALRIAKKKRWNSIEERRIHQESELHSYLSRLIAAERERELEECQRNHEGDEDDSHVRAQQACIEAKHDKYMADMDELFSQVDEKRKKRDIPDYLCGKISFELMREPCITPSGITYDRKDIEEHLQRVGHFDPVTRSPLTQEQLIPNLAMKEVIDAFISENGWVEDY
The experiment in a line: native gel or EMSA. To be noted: remark: other sources report otherwise.

Assay [4] addresses T2, CHIP-myc K30A (human), Q9UNE7.
T2 chain: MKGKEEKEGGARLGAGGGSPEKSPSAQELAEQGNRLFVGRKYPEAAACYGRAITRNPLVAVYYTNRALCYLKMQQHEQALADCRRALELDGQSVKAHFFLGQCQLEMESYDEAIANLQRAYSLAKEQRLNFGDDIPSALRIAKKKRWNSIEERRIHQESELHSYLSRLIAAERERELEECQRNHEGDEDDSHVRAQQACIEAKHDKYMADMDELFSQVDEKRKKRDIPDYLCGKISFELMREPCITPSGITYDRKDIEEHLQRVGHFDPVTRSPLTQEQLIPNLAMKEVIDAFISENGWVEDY
The experiment in a line: native gel or EMSA. To be noted: remark: other sources report otherwise.

For “CHIP Y230Cfs*9, recombinant (from UniProt Q9UNE7-1 1-303) (natural protein)”, in assay [1], the percent of the protein as dimers is 80% and the stoichiometry N amounted to 2.
With “CHIP-myc ΔStartCodon (c.3G>A) (from UniProt Q9UNE7-1 1-303) (natural protein)”, in assay [2], the stoichiometry N worked out at 2.

B1: CHIP-myc wild type, Q9UNE7-1 1-303 (natural protein)
chain: MKGKEEKEGGARLGAGGGSPEKSPSAQELKEQGNRLFVGRKYPEAAACYGRAITRNPLVAVYYTNRALCYLKMQQHEQALADCRRALELDGQSVKAHFFLGQCQLEMESYDEAIANLQRAYSLAKEQRLNFGDDIPSALRIAKKKRWNSIEERRIHQESELHSYLSRLIAAERERELEECQRNHEGDEDDSHVRAQQACIEAKHDKYMADMDELFSQVDEKRKKRDIPDYLCGKISFELMREPCITPSGITYDRKDIEEHLQRVGHFDPVTRSPLTQEQLIPNLAMKEVIDAFISENGWVEDY
For B1, in assay [3], the stoichiometry N came to 2.

B2: CHIP-myc K30A, Q9UNE7-1 1-303 (natural protein)
chain: MKGKEEKEGGARLGAGGGSPEKSPSAQELAEQGNRLFVGRKYPEAAACYGRAITRNPLVAVYYTNRALCYLKMQQHEQALADCRRALELDGQSVKAHFFLGQCQLEMESYDEAIANLQRAYSLAKEQRLNFGDDIPSALRIAKKKRWNSIEERRIHQESELHSYLSRLIAAERERELEECQRNHEGDEDDSHVRAQQACIEAKHDKYMADMDELFSQVDEKRKKRDIPDYLCGKISFELMREPCITPSGITYDRKDIEEHLQRVGHFDPVTRSPLTQEQLIPNLAMKEVIDAFISENGWVEDY
In turn, B2 registered a stoichiometry N in assay [4] of 2.

The stoichiometry N is the number of molecules, sites or subunits per partner or assembly.
